Experimental findings from patent US20080045469A1 (published 2008) are described below.

For data set [1], the target named is T1, human VEGF165 expressed in transduced LLC cells (human), P15692.
T1 chain: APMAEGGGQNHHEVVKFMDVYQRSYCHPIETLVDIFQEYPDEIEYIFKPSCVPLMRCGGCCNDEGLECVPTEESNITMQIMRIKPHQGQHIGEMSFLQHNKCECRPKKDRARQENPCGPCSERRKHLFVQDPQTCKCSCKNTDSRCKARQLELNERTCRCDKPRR
Put plainly: sandwich ELISA of conditioned medium of hVEGF-LLC cells, homodimer format. The conditions noted are these: remark: other sources report otherwise.

Data set [2] concerns the target recombinant human VEGF165 monomer (E. coli) (human, UniProt P15692-4 27-191). The data set can be described thus: in vitro reduction and refolding of E. coli proteins. The procedure:
Recombinant human PLGF-1 (SEQ ID NO: 1) and VEGF₁ monomers were expressed in E. Coli as previously described⁴⁴. An equimolar of mixture of PLGF-1- and VEGF₁ homodimers, at a total protein concentration of 0.5 mg/ml, was incubated in reducing buffer (20 mM Tris-HC1, pH 8.0, 6 M guanidine-HC1, and 10 mM DTT) at 4° C. over night. The following day the protein solution was dialyzed against 10 volumes of refolding buffer (2 M urea, 20 mM Tris-HC1, pH 8.0, 2 mM GSH (glutathione-SH) and 0.5 mM GSSG (glutathione-S-S-glutathione)). Using this refolding protocol, a mixture of homodimeric PLGF-1 and VEGF₁ as well as heterodimeric PLGF-1/VEGF was generated.

Data set [3] deals with the molecule itself. The data set can be described thus: sandwich ELISA of cell lysates and conditioned media of hPLGF-1-KDEL-LLC cells. From the text: To quantify the amounts of intracellular and extracellular dimeric molecules, a sensitive sandwich ELISA assay was used to analyze cell lysates and conditioned media from transduced and non-transduced LLC cell lines. Specific antibodies were used against each factor, either two antibodies against the same factor but raised in different species (homodimers) or two antibodies against different factors (heterodimers). As expected, a high level of mVEGF homodimers was detected in conditioned media from controls, wt LLC and vector-transduced LLC cells (Table 1).

B1: human VEGF165 expressed in transduced LLC cells, P15692 27-191 (ligand, UniProt P15692-4 27-191, looked up)
chain: APMAEGGGQNHHEVVKFMDVYQRSYCHPIETLVDIFQEYPDEIEYIFKPSCVPLMRCGGCCNDEGLECVPTEESNITMQIMRIKPHQGQHIGEMSFLQHNKCECRPKKDRARQENPCGPCSERRKHLFVQDPQTCKCSCKNTDSRCKARQLELNERTCRCDKPRR
B1 returned a homodimer concentration in conditioned medium in data set [1] of 41900 pg/mL.

B2: recombinant human PLGF-1 monomer (E. coli) (ligand)
chain: LPAVPPQQWALSAGNGSSEVEVVPFQEVWGRSYCRALERLVDVVSEYPSEVEHMFSPSCVSLLRCTGCCGDENLHCVPVETANVTMQLLKIRSGDRPSYVELTFSQHVRCECRPLREKMKPERCGDAVPRR
For the molecule B2, in data set [2], the binding result was “binds”.

B3: human PLGF-1 with C-terminal KDEL ER-retention signal (ligand)
chain: LPAVPPQQWALSAGNGSSEVEVVPFQEVWGRSYCRALERLVDVVSEYPSEVEHMFSPSCVSLLRCTGCCGDENLHCVPVETANVTMQLLKIRSGDRPSYVELTFSQHVRCECRPLREKMKPERCGDAVPRRKDEL
notes: Expressed in transduced LLC cells; also called hPLGF-1-KDEL; PLGF-1-KDEL
In the case of B3, the binding result in data set [3] was “binds”.
